Values quoted from earlier work, collected in publication PMC6704176.

Target: SRSRY (uPAR-derived peptide) (Homo sapiens)

Kd: 30 nM
Substance: FPR1 (from UniProt P21462)
